Four molecules from PMC12214486 can be followed below.

The target in series [1] is T1, DNA polymerase iota catalytic core (UniProt Q9UNA4 26-443).
T1 sequence: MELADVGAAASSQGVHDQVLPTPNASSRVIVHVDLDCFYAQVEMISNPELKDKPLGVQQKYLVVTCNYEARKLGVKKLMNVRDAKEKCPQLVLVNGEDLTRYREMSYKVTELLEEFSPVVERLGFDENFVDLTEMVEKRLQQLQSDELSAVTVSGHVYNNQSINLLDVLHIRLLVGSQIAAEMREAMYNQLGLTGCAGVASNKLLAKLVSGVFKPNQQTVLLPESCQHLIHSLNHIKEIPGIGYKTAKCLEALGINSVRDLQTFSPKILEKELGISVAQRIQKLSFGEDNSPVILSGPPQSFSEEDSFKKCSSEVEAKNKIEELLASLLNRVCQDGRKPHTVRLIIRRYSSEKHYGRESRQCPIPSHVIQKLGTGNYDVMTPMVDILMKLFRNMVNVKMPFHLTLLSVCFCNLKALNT
As to the kind of experiment: time-lapse X-ray crystallography.

Series [2] addresses T1, DNA polymerase iota catalytic core. As to the kind of experiment: X-ray crystallography.
Series [3] has the same target. As to the kind of experiment: X-ray crystallography. This is another data set of the same source.
Series [4] shares this target. Briefly: X-ray crystallography. This is another data set of the same source.

B1: product DNA formed in crystallo from 18-mer plus dTTP (dsDNA)
DNA 1: TCAAGGGTCCTAGGACCCT
DNA 2: TCAAGGGTCCTAGGACCCT
B1: the binding result in series [1] is reported as “binds”.

B2: self-annealed 19-mer product DNA (pre-translocation) (dsDNA)
DNA 1: TCAAGGGTCCTAGGACCCT
DNA 2: TCAAGGGTCCTAGGACCCT
On to B2, for which the binding result in series [2] was “binds”.

B3: self-annealed 18-mer substrate DNA, template A (dsDNA)
DNA 1: TCAAGGGTCCTAGGACCC
DNA 2: TCAAGGGTCCTAGGACCC
Take B3: the binding result in series [3] is recorded as “binds”.

B4: self-annealed 17-mer product DNA (post-translocation) (dsDNA)
DNA 1: TCAAGGGTCCGGACCCT
DNA 2: TCAAGGGTCCGGACCCT
Turning to B4, the binding result in series [4] is “binds”.
